Data taken from publication PMC10703496.

Legend:
[1] = target: soluble His-tagged human neonatal Fc receptor (human) (UniProt P55899)
[2] = target: dimeric ACE2-albumin fusion: truncated human ACE2 (residues 18–740) fused to full-length wild-type human albumin (human) (UniProt Q9BYF1); assay: SEC
[3] = target: dimeric ACE2-albumin fusion: truncated human ACE2 (residues 18–740) fused to engineered human albumi (human) (UniProt Q9BYF1); assay: SEC
[4] = target: 6×His-tagged receptor-binding domain (RBD) of SARS-CoV-2 spike, Wuhan (SARS-CoV-2) (UniProt P0DTC2); assay: SPR
[5] = target: spike protein of live Wuhan SARS-CoV-2 (SARS-CoV-2) (UniProt P0DTC2)
[6] = target: ACE2(18–740)-WT: truncated dimeric human ACE2 (residues 18–740) fused to the N-terminal end of full- (human) (UniProt Q9BYF1); assay: SPR
[7] = target: ACE2(18–740)-WT: truncated dimeric human ACE2 (residues 18–740) fused to the N-terminal end of full- (human) (UniProt Q9BYF1); assay: SPR; pH 5.5

Chain of soluble His-tagged human neonatal Fc receptor (human FcRn-His) (P55899 24-297): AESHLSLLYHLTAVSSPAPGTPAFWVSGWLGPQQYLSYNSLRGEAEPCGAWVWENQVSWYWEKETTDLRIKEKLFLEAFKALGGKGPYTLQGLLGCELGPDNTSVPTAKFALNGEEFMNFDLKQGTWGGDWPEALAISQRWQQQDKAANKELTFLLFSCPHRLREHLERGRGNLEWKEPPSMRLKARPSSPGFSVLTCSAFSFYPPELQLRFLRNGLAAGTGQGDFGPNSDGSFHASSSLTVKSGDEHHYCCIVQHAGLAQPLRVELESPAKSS
Chain of soluble His-tagged human neonatal Fc receptor (human FcRn-His) (P61769 21-119): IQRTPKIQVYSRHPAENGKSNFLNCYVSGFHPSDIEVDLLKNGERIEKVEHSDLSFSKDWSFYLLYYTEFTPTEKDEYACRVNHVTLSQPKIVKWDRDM
Chain of soluble His-tagged human neonatal Fc receptor (human) (P55899 24-297, chain 1 of 2): as the sequence (P55899 24-297) above
Chain of soluble His-tagged human neonatal Fc receptor (human) (P61769 21-119, chain 2 of 2, further chain): as the sequence (P61769 21-119) above

Substance | Kd [4] [nM] | koff [4] [s⁻¹] | kon [4] [M⁻¹ s⁻¹] | other results
dimeric ACE2-albumin fusion: truncated human ACE2 (residues 18–740) fused to full-length wild-type human albumin (from UniProt Q9BYF1;P02768) | – | – | – | plasma half-life after IV injection in human FcRn Tg32 mice [1]: 26.4 h; stoichiometry N [2]: 2
dimeric ACE2-albumin fusion: truncated human ACE2 (residues 18–740) fused to engineered human albumi (from UniProt Q9BYF1 18-740) | – | – | – | stoichiometry N [3]: 2
ACE2(18–615)-WT: monomeric ACE2 peptidase domain (residues 18–615) fused to the N-terminal end of fu (from UniProt Q9BYF1-1;P02768) | 327 | 0.0124 | 38000 | –
ACE2(18–740)-WT: truncated dimeric human ACE2 (residues 18–740) fused to the N-terminal end of full- (from UniProt Q9BYF1-1;P02768) | 0.9 | 0.00015 | 166000 | Table S3: IC50 of live virus neutralization (Wuhan SARS-CoV-2 on Vero E6 cells) [5]: 293 nM
soluble His-tagged human neonatal Fc receptor (human FcRn-His) (from UniProt P55899 24-297; P61769 21-119) | – | – | – | kon [6]: 60000 M⁻¹ s⁻¹; Kd [7]: 102 nM; koff [7]: 0.0061 s⁻¹
ACE2(18–615)-QMP: monomeric ACE2 peptidase domain (residues 18–615) fused to the N-terminal end of QMP human albumin (from UniProt Q9BYF1-1;P02768) | 108 | 0.026 | 240000 | –
